The record followed here is publication PMC11315935, “Multi-layered heterochromatin interaction as a switch for DIM2-mediated DNA methylation” (Nature Communications, 2024).

“Also recorded” adds a separate entry of the source.

Data set [1] deals with (CTA)12/(TAG)12 36-mer DNA duplex. As to the kind of experiment: In vitro DNA methylation assay of DIM2 (WT or mutant). The settings on record: Fig. 3h, in the presence of HP1 (2 µM) and H3_1-24K9me3 peptide (1.0 µM), 1.0 µM DIM2, 30 °C, 30 min, pH 8.0. The data set is classed as biochemical. The arrangement: DNA methylation activity: unit not given here.
Another data set deals with HP1. In words: Size-exclusion chromatography of DIM2-HP1 complex. The data set is classed as binding, Neurospora Crassa. The following applies: 1.0 µM DIM2 and/or 2.5 µM HP1, Superdex 200 increase 10/300 GL, pH 7.5. As to the method: For size-exclusion chromatography analysis, 400 µL of the sample mixture containing 1.0 µM DIM2 and/or 2.5 µM HP1 was loaded onto Superdex 200 increase 10/300 GL column (GE Healthcare) and eluted at a flow rate of 0.5 mL/min, in the buffer containing 20 mM Tris-HCl (pH 7.5), 100 mM NaCl, 5% glycerol, and 5 mM DTT. The proteins in each fraction were then visualized by SDS-PAGE.
(In gel filtration, larger molecules generally elute earlier.)

Data set [2] in a line: Thermal shift assay, protein alone. The data set is classed as physicochemical. The settings on record: 5 μM DIM2 or 10 µM HP1, pH 7.5, 1× GloMelt Dye, 4 to 95 °C, triplicate. The method, then:
Thermal shift assays were performed for WT and R1104A DIM2 proteins using a Bio-Rad CFX Connect Real-Time PCR Detection System. Each 20-µL reaction mixture contained 5 μM WT or R1104A-mutated DIM2, and/or 10 µM HP1 protein, dissolved in buffer containing 20 mM Tris-HCl (pH 7.5), 100 mM NaCl, 5% glycerol, 5 mM DTT, and 1× GloMelt Dye (Biotium). The sample plates were subject to heat from 4 to 95 °C with a stepwise increment of 5 °C. Fluorescence intensity was recorded with the excitation and emission wavelength of 470 nm and 510 nm, respectively. The experiments were carried out in triplicate.

B1: DIM2R1104A: DIM2 with TRD mutation R1104A (protein)
chain: MDSPDRSHGGMFIDVPAETMGFQEDYLDMFASVLSQGLAKEGDYAHHQPLPAGKEECLEPIAVATTITPSPDDPQLQLQLELEQQFQTESGLNGVDPAPAPESEDEADLPDGFSDESPDDDFVVQRSKHITVDLPVSTLINPRSTFQRIDENDNLVPPPQSTPERVAVEDLLKAAKAAGKNKEDYIEFELHDFNFYVNYAYHPQEMRPIQLVATKVLHDKYYFDGVLKYGNTKHYVTGMQVLELPVGNYGASLHSVKGQIWVRSKHNAKKEIYYLLKKPAFEYQRYYQPFLWIADLGKHVVDYCTRMVERKREVTLGCFKSDFIQWASKAHGKSKAFQNWRAQHPSDDFRTSVAANIGYIWKEINGVAGAKRAAGDQLFRELMIVKPGQYFRQEVPPGPVVTEGDRTVAATIVTPYIKECFGHMILGKVLRLAGEDAEKEKEVKLAKRLKIENKNATKADTKDDMKNDTATESLPTPLRSLPVQVLEATPIESDIVSIVSSDLPPSENNPPPLTNGSVKPKAKANPKPKPSTQPLHAAHVKYLSQELVNKIKVGDVISTPRDDSSNTDTKWKPTDTDDHRWFGLVQRVHTAKTKSSGRGLNSKSFDVIWFYRPEDTPCCAMKYKWRNELFLSNHCTCQEGHHARVKGNEVLAVHPVDWFGTPESNKGEFFVRQLYESEQRRWITLQKDHLTCYHNQPPKPPTAPYKPGDTVLATLSPSDKFSDPYEVVEYFTQGEKETAFVRLRKLLRRRKVDRQDAPANELVYTEDLVDVRAERIVGKCIMRCFRPDERVPSPYDRGGTGNMFFITHRQDHGRCVPLDTLPPTLRQGFNPLGNLGKPKLRGMDLYCGGGNFGRGLEEGGVVEMRWANDIWDKAIHTYMANTPDPNKTNPFLGSVDDLLRLALEGKFSDNVPRPGEVDFIAAGSPCPGFSLLTQDKKVLNQVKNQSLVASFASFVDFYRPKYGVLENVSGIVQTFVNRKQDVLSQLFCALVGMGYQAQLILGDAWAHGAPQSRERVFLYFAAPGLPLPDPPLPSHSHYRVKNRNIGFLCNGESYVQRSFIPTAFKFVSAGEGTADLPKIGDGKPDACVRFPDHRLASGITPYIAAQYACIPTHPYGMNFIKAWNNGNGVMSKSDRDLFPSEGKTRTSDASVGWKRLNPKTLFPTVTTTSNPSDARMGPGLHWDEDRPYTVQEMRRAQGYLDEEVLVGRTTDQWKLVGNSVSRHMALAIGLKFREAWLGTLYD
modifications: left off: His6, N-terminal, cleaved | MBP, N-terminal, cleaved
notes: DIM2 with TRD mutation R1104A
In the case of B1, the figures for the DNA methylation activity in data set [1] (replicate 1), in data set [1] (replicate 2) and in data set [1] (replicate 3) were 3.1, 2.552 and 2.87, respectively. In addition, the “DIM2-HP1 complex formation (in words)” value with HP1 was “did not affect the assembly of the DIM2-HP1 complex appreciably; also recorded: barely impacts the association of the DIM2-HP1 complex”. For the same molecule, the “melting temperature (Tm)” value in data set [2] was found to be 39.5 °C.
